Assay results published in US20080194482A1, “Selective Apac2 Receptor Peptide Agonists” (priority 2005, published 2008).
Square brackets hold non-standard residues; d marks the D form. Ends that are not written are not given here. * marks the point of attachment. Orn = NCCC[C@H](N)C(=O)O; Hexanoyl = CCCCCC(=O)*; Aib = CC(C)(N)C(=O)O

T1: human VPAC2 receptor (human, UniProt P41587 24-438)
T1 sequence (looked up): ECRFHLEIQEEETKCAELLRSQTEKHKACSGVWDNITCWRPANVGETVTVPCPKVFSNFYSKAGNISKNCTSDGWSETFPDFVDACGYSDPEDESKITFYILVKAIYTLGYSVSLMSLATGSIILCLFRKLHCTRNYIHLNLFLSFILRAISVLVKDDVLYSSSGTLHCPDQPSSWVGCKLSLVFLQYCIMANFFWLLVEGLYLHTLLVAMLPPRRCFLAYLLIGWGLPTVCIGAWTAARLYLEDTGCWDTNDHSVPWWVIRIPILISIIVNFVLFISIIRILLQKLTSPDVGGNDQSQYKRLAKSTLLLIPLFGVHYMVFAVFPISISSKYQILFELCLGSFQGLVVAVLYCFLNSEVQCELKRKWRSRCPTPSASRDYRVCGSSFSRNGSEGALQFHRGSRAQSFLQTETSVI

T2: rat VPAC2 receptor (rat, UniProt P35000 23-437)
T2 sequence (looked up): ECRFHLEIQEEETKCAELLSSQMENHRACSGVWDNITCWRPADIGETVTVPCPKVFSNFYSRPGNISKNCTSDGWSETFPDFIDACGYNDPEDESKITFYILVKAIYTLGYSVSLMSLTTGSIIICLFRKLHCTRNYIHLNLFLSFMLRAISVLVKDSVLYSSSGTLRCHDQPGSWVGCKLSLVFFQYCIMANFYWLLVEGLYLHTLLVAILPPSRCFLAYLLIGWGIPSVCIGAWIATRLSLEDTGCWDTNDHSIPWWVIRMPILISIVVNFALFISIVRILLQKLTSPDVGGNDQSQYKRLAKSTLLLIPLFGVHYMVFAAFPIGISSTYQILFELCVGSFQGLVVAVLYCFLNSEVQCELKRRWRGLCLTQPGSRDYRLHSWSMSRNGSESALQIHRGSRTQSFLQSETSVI

T3: rat VPAC1 receptor (rat, UniProt P30083 31-459)
T3 sequence (looked up): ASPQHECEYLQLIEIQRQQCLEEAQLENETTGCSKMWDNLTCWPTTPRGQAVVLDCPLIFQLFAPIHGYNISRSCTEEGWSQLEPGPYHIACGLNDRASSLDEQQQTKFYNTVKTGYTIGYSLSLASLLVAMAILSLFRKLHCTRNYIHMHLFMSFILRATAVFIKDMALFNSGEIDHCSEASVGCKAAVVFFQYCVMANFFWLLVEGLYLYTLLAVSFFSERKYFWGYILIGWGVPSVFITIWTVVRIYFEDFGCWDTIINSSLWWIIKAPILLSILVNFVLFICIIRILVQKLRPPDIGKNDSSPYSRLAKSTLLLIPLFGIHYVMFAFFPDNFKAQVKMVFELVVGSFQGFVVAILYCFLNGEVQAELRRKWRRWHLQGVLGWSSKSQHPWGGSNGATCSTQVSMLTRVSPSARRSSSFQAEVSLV


These binders were tested against T1, human VPAC2 receptor (assay: cell-based or functional assay).

Row | Binder | Human VPAC2 Receptor: Alpha Screen (EC50; nM), cAMP generation
1 | HSDAVFTDNYTXLRXQVAAXKYLQSSXNXGGPSSGAPPPS (N-terminal hexanoyl (C6); Orn at 12, 27 and 29; Aib at 15 and 20) [VPAC2 receptor peptide agonist P382] | 0.33 nM
2 | Hexanoyl-HSDAVFTDQYT[Orn]LR[Aib]QVAA[Aib]KYLQSI[Orn]Q[Orn]GGPSSGAPPPS [VPAC2 receptor peptide agonist P363] | 0.27 nM
3 | HSDAVFTDNYTXLRXQVAAXKSLQSIXNXGGPSSGAPPPS (N-terminal hexanoyl (C6); Orn at 12, 27 and 29; Aib at 15 and 20) [VPAC2 receptor peptide agonist P385] | 23.9 nM
4 | HSDAVFTDNYTXLRXQVAAXKYLSSIXNXGGPSSGAPPPS (N-terminal hexanoyl (C6); Orn at 12, 27 and 29; Aib at 15 and 20) [VPAC2 receptor peptide agonist P383] | 0.12 nM
5 | HSDAVFTDNYTXLRXQVAAXSYLQSIXNXGGPSSGAPPPS (N-terminal hexanoyl (C6); Orn at 12, 27 and 29; Aib at 15 and 20) [VPAC2 receptor peptide agonist P386] | 0.65 nM
6 | HSDAVFTDNYTXLRXQVSAXKYLQSIXNXGGPSSGAPPPS (N-terminal hexanoyl (C6); Orn at 12, 27 and 29; Aib at 15 and 20) [VPAC2 receptor peptide agonist P388] | 2760 nM
7 | HSDAVFTDNYTXLRXQSAAXKYLQSIXNXGGPSSGAPPPS (N-terminal hexanoyl (C6); Orn at 12, 27 and 29; Aib at 15 and 20) [VPAC2 receptor peptide agonist P389] | 0.16 nM
8 | HSDAVFTDNYTXLRXQVASXKYLQSIXNXGGPSSGAPPPS (N-terminal hexanoyl (C6); Orn at 12, 27 and 29; Aib at 15 and 20) [VPAC2 receptor peptide agonist P387] | 0.47 nM
9 | HSDAVFTDNYTXLRXQVAAXKYSQSIXNXGGPSSGAPPPS (N-terminal hexanoyl (C6); Orn at 12, 27 and 29; Aib at 15 and 20) [VPAC2 receptor peptide agonist P384] | 6.7 nM
10 | Hexanoyl-HSEAVFTENYT[Orn]LR[Aib]QVAA[Aib]KYLQSI[Orn]N[Orn]GGPSSGAPPPS [VPAC2 receptor peptide agonist P362] | 0.58 nM

The binders below were run against T2, rat VPAC2 receptor (assay: cell-based or functional assay).

Row | Binder | Rat VPAC2 Receptor: DiscoveRx (EC50; nM), cAMP generation
11 | HSDAVFTDNYTXLRXQVAAXKYLQSSXNXGGPSSGAPPPS (N-terminal hexanoyl (C6); Orn at 12, 27 and 29; Aib at 15 and 20) [VPAC2 receptor peptide agonist P382] | 0.37 nM
12 | Hexanoyl-HSDAVFTDQYT[Orn]LR[Aib]QVAA[Aib]KYLQSI[Orn]Q[Orn]GGPSSGAPPPS [VPAC2 receptor peptide agonist P363] | 0.09 nM
13 | HSDAVFTDNYTXLRXQVAAXKSLQSIXNXGGPSSGAPPPS (N-terminal hexanoyl (C6); Orn at 12, 27 and 29; Aib at 15 and 20) [VPAC2 receptor peptide agonist P385] | 28.8 nM
14 | HSDAVFTDNYTXLRXQVAAXKYLSSIXNXGGPSSGAPPPS (N-terminal hexanoyl (C6); Orn at 12, 27 and 29; Aib at 15 and 20) [VPAC2 receptor peptide agonist P383] | 0.18 nM
15 | HSDAVFTDNYTXLRXQVAAXSYLQSIXNXGGPSSGAPPPS (N-terminal hexanoyl (C6); Orn at 12, 27 and 29; Aib at 15 and 20) [VPAC2 receptor peptide agonist P386] | 0.28 nM
16 | HSDAVFTDNYTXLRXQVSAXKYLQSIXNXGGPSSGAPPPS (N-terminal hexanoyl (C6); Orn at 12, 27 and 29; Aib at 15 and 20) [VPAC2 receptor peptide agonist P388] | 709 nM
17 | HSDAVFTDNYTXLRXQSAAXKYLQSIXNXGGPSSGAPPPS (N-terminal hexanoyl (C6); Orn at 12, 27 and 29; Aib at 15 and 20) [VPAC2 receptor peptide agonist P389] | 0.21 nM
18 | HSDAVFTDNYTXLRXQVASXKYLQSIXNXGGPSSGAPPPS (N-terminal hexanoyl (C6); Orn at 12, 27 and 29; Aib at 15 and 20) [VPAC2 receptor peptide agonist P387] | 0.4 nM
19 | HSDAVFTDNYTXLRXQVAAXKYSQSIXNXGGPSSGAPPPS (N-terminal hexanoyl (C6); Orn at 12, 27 and 29; Aib at 15 and 20) [VPAC2 receptor peptide agonist P384] | 8.05 nM
20 | Hexanoyl-HSEAVFTENYT[Orn]LR[Aib]QVAA[Aib]KYLQSI[Orn]N[Orn]GGPSSGAPPPS [VPAC2 receptor peptide agonist P362] | 1.22 nM

What follows are binders tested against T3, rat VPAC1 receptor (assay: cell-based or functional assay).

Row | Binder | Rat VPAC1 Receptor: DiscoveRx (EC50; nM), cAMP generation
21 | HSDAVFTDNYTXLRXQVAAXKYLQSSXNXGGPSSGAPPPS (N-terminal hexanoyl (C6); Orn at 12, 27 and 29; Aib at 15 and 20) [VPAC2 receptor peptide agonist P382] | 8.21 nM
22 | Hexanoyl-HSDAVFTDQYT[Orn]LR[Aib]QVAA[Aib]KYLQSI[Orn]Q[Orn]GGPSSGAPPPS [VPAC2 receptor peptide agonist P363] | 1.44 nM
23 | HSDAVFTDNYTXLRXQVAAXKSLQSIXNXGGPSSGAPPPS (N-terminal hexanoyl (C6); Orn at 12, 27 and 29; Aib at 15 and 20) [VPAC2 receptor peptide agonist P385] | 96.8 nM
24 | HSDAVFTDNYTXLRXQVAAXKYLSSIXNXGGPSSGAPPPS (N-terminal hexanoyl (C6); Orn at 12, 27 and 29; Aib at 15 and 20) [VPAC2 receptor peptide agonist P383] | 1.68 nM
25 | HSDAVFTDNYTXLRXQVAAXSYLQSIXNXGGPSSGAPPPS (N-terminal hexanoyl (C6); Orn at 12, 27 and 29; Aib at 15 and 20) [VPAC2 receptor peptide agonist P386] | 4.34 nM
26 | HSDAVFTDNYTXLRXQVSAXKYLQSIXNXGGPSSGAPPPS (N-terminal hexanoyl (C6); Orn at 12, 27 and 29; Aib at 15 and 20) [VPAC2 receptor peptide agonist P388] | > 2000 nM
27 | HSDAVFTDNYTXLRXQSAAXKYLQSIXNXGGPSSGAPPPS (N-terminal hexanoyl (C6); Orn at 12, 27 and 29; Aib at 15 and 20) [VPAC2 receptor peptide agonist P389] | 4.4 nM
28 | HSDAVFTDNYTXLRXQVASXKYLQSIXNXGGPSSGAPPPS (N-terminal hexanoyl (C6); Orn at 12, 27 and 29; Aib at 15 and 20) [VPAC2 receptor peptide agonist P387] | 20.4 nM
29 | HSDAVFTDNYTXLRXQVAAXKYSQSIXNXGGPSSGAPPPS (N-terminal hexanoyl (C6); Orn at 12, 27 and 29; Aib at 15 and 20) [VPAC2 receptor peptide agonist P384] | > 600 nM
30 | Hexanoyl-HSEAVFTENYT[Orn]LR[Aib]QVAA[Aib]KYLQSI[Orn]N[Orn]GGPSSGAPPPS [VPAC2 receptor peptide agonist P362] | 35.9 nM

These binders were tested against T1, human VPAC2 receptor (assay: filter binding, human VPAC2 membranes, competition with 125I-VIP;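 further: assay plate incubated 1 h with shaking, then filtered, with filter-retained counts measured after adding scintillant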).
Procedure: The filled plate is incubated for 1 hour with shaking.
The transfer from assay plate to filter plate is conducted. The blocking buffer is aspirated by vacuum filtration and washed two times with flush buffer. 90 μL is transferred from the assay plate to the filter plate. The 90 μL transferred from assay plate is aspirated and washed three times with 200 μL flush buffer. The plastic support is removed. It is dried for 1 hour at 60° C. 30 μL Microscint is added. The count is performed.

Row | Binder | IC50
31 | HSDAVFTDNYTXLRXQVAAXKYLQSSXNXGGPSSGAPPPS (N-terminal hexanoyl (C6); Orn at 12, 27 and 29; Aib at 15 and 20) [VPAC2 receptor peptide agonist P382] | 2.17 nM
32 | Hexanoyl-HSDAVFTDQYT[Orn]LR[Aib]QVAA[Aib]KYLQSI[Orn]Q[Orn]GGPSSGAPPPS [VPAC2 receptor peptide agonist P363] | 0.25 nM
33 | HSDAVFTDNYTXLRXQVAAXKSLQSIXNXGGPSSGAPPPS (N-terminal hexanoyl (C6); Orn at 12, 27 and 29; Aib at 15 and 20) [VPAC2 receptor peptide agonist P385] | 99.2 nM
34 | HSDAVFTDNYTXLRXQVAAXKYLSSIXNXGGPSSGAPPPS (N-terminal hexanoyl (C6); Orn at 12, 27 and 29; Aib at 15 and 20) [VPAC2 receptor peptide agonist P383] | 5.01 nM
35 | HSDAVFTDNYTXLRXQVAAXSYLQSIXNXGGPSSGAPPPS (N-terminal hexanoyl (C6); Orn at 12, 27 and 29; Aib at 15 and 20) [VPAC2 receptor peptide agonist P386] | 5.92 nM
36 | HSDAVFTDNYTXLRXQVSAXKYLQSIXNXGGPSSGAPPPS (N-terminal hexanoyl (C6); Orn at 12, 27 and 29; Aib at 15 and 20) [VPAC2 receptor peptide agonist P388] | 100 nM
37 | HSDAVFTDNYTXLRXQSAAXKYLQSIXNXGGPSSGAPPPS (N-terminal hexanoyl (C6); Orn at 12, 27 and 29; Aib at 15 and 20) [VPAC2 receptor peptide agonist P389] | 0.82 nM
38 | HSDAVFTDNYTXLRXQVASXKYLQSIXNXGGPSSGAPPPS (N-terminal hexanoyl (C6); Orn at 12, 27 and 29; Aib at 15 and 20) [VPAC2 receptor peptide agonist P387] | 1.39 nM
39 | HSDAVFTDNYTXLRXQVAAXKYSQSIXNXGGPSSGAPPPS (N-terminal hexanoyl (C6); Orn at 12, 27 and 29; Aib at 15 and 20) [VPAC2 receptor peptide agonist P384] | 22.2 nM
40 | Hexanoyl-HSEAVFTENYT[Orn]LR[Aib]QVAA[Aib]KYLQSI[Orn]N[Orn]GGPSSGAPPPS [VPAC2 receptor peptide agonist P362] | 1.91 nM
